Source: PMC12636710

Experiments:
[1] = target: prion protein (PrP) (mouse (endogenous in brain of APOE-TR mice)) (UniProt P04925); assay: velocity sedimentation in a sucrose gradient
[2] = target: human apolipoprotein E, apoE4 isoform (ε4 allele) (human) (UniProt P02649); assay: co-IP
Sequence of human apolipoprotein E, apoE4 isoform (ε4 allele) (human) (P02649 19-317): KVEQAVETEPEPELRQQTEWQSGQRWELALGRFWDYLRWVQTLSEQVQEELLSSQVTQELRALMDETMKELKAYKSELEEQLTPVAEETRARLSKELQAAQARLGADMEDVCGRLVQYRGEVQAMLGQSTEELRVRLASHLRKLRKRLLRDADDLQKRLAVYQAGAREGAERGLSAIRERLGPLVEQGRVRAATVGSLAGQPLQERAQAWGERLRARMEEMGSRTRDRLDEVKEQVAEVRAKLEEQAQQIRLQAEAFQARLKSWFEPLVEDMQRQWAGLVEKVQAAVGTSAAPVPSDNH

Sequence of prion protein (PrP) (P04925 23-230): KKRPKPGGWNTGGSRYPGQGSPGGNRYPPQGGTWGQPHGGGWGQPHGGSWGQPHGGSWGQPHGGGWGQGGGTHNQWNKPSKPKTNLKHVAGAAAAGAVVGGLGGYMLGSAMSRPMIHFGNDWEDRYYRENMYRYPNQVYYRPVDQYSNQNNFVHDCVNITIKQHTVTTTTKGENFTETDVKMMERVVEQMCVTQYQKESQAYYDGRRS
Sequence of prion protein (PrP), P04925 23-230 (natural protein; other documents disagree on this pair) (P04925 23-230): as above

Substance | stoichiometry N [1] | fold PrP/apoE OD ratio in the immunoprecipitate against ε2/ε2 22L mice [2] | fold PrP/apoE OD ratio in the immunoprecipitate against ε3/ε3 22L mice [2]
prion protein (PrP), P04925 23-230 (natural protein; other documents disagree on this pair) | > 10 |  | 
prion protein (PrP) (from UniProt P04925 23-230) (natural protein) |  | 2.8 fold | 1.7 fold
